Measurements published in patent publication US20180155451A1 (published 2018).

B1: GpH7-A5/GpH7-B3 variant (I336_09D)/GpL16-k0 (antibody, human IgG1, kappa)
heavy 1: not shown
heavy 2: not shown
light: DIVMTQSPLSLPVTPGEPASISCQASESLVHSNRNTYLHWYLQKPGQSPQLLIYKVSNRFSGVPDRFSGSGSGTDFTLKISRVEAEDVGVYYCSQNTHVPPTFGQGTKVEIERTVAAPSVFIFPPSDEQLKSGTASVVCLLNNFYPREAKVQWKVDNALQSGNSQESVTEQDSKDSTYSLSSTLTLSKADYEKHKVYACEVTHQGLSSPVTKSFNRGEC
notes: Heterodimerized; only the B3 chain altered; also called He Ab I336_09D
B2: GpH7-A5/GpH7-B3 variant (Y296_12R)/GpL16-k0 (antibody, human IgG1, kappa)
heavy 1: not shown
heavy 2: not shown
light: B1 light
notes: Heterodimerized; only the B3 chain altered; also called He Ab Y296_12R
B3: GpH7-A5/GpH7-B3 variant (T335_10E)/GpL16-k0 (antibody, human IgG1, kappa)
heavy 1: not shown
heavy 2: not shown
light: B1 light
notes: Heterodimerized; only the B3 chain altered; also called He Ab T335_10E
B4: GpH7-A5/GpH7-B3 variant (T335_19Q)/GpL16-k0 (antibody, human IgG1, kappa)
heavy 1: not shown
heavy 2: not shown
light: B1 light
notes: Heterodimerized; only the B3 chain altered; also called He Ab T335_19Q
B5: GpH7-A5/GpH7-B3 variant (Y300_03V)/GpL16-k0 (antibody, human IgG1, kappa)
heavy 1: not shown
heavy 2: not shown
light: B1 light
notes: Heterodimerized; only the B3 chain altered; also called He Ab Y300_03V
B6: GpH7-A5/GpH7-B3 variant (I336_12R)/GpL16-k0 (antibody, human IgG1, kappa)
heavy 1: not shown
heavy 2: not shown
light: B1 light
notes: Heterodimerized; only the B3 chain altered; also called He Ab I336_12R
B7: GpH7-A5/GpH7-B3 variant (T335_11K)/GpL16-k0 (antibody, human IgG1, kappa)
heavy 1: not shown
heavy 2: not shown
light: B1 light
notes: Heterodimerized; only the B3 chain altered; also called He Ab T335_11K
B8: GpH7-A5/GpH7-B3 variant (A330_01G)/GpL16-k0 (antibody, human IgG1, kappa)
heavy 1: not shown
heavy 2: not shown
light: B1 light
notes: Heterodimerized; only the B3 chain altered; also called He Ab A330_01G
B9: GpH7-A5/GpH7-B3 variant (S337_09D)/GpL16-k0 (antibody, human IgG1, kappa)
heavy 1: not shown
heavy 2: not shown
light: B1 light
notes: Heterodimerized; only the B3 chain altered; also called He Ab S337_09D
B10: GpH7-A5/GpH7-B3 variant (Y296_11K)/GpL16-k0 (antibody, human IgG1, kappa)
heavy 1: not shown
heavy 2: not shown
light: B1 light
notes: Heterodimerized; only the B3 chain altered; also called He Ab Y296_11K
B11: GpH7-A5/GpH7-B3 variant (H268_09D)/GpL16-k0 (antibody, human IgG1, kappa)
heavy 1: not shown
heavy 2: not shown
light: B1 light
notes: Heterodimerized; only the B3 chain altered; also called He Ab H268_09D
B12: GpH7-A5/GpH7-B3 variant (S337_20W)/GpL16-k0 (antibody, human IgG1, kappa)
heavy 1: not shown
heavy 2: not shown
light: B1 light
notes: Heterodimerized; only the B3 chain altered; also called He Ab S337_20W
B13: GpH7-A5/GpH7-B3 variant (I336_11K)/GpL16-k0 (antibody, human IgG1, kappa)
heavy 1: not shown
heavy 2: not shown
light: B1 light
notes: Heterodimerized; only the B3 chain altered; also called He Ab I336_11K
B14: GpH7-A5/GpH7-B3 variant (H268_13S)/GpL16-k0 (antibody, human IgG1, kappa)
heavy 1: not shown
heavy 2: not shown
light: B1 light
notes: Heterodimerized; only the B3 chain altered; also called He Ab H268_13S
B15: GpH7-A5/GpH7-B3 variant (H268_10E)/GpL16-k0 (antibody, human IgG1, kappa)
heavy 1: not shown
heavy 2: not shown
light: B1 light
notes: Heterodimerized; only the B3 chain altered; also called He Ab H268_10E
B16: GpH7-A5/GpH7-B3 variant (D265_10E)/GpL16-k0 (antibody, human IgG1, kappa)
heavy 1: not shown
heavy 2: not shown
light: B1 light
notes: Heterodimerized; only the B3 chain altered; also called He Ab D265_10E
B17: GpH7-A5/GpH7-B3 variant (Y300_14T)/GpL16-k0 (antibody, human IgG1, kappa)
heavy 1: not shown
heavy 2: not shown
light: B1 light
notes: Heterodimerized; only the B3 chain altered; also called He Ab Y300_14T
B18: GpH7-A5/GpH7-B3 variant (Y296_16H)/GpL16-k0 (antibody, human IgG1, kappa)
heavy 1: not shown
heavy 2: not shown
light: B1 light
notes: Heterodimerized; only the B3 chain altered; also called He Ab Y296_16H
B19: GpH7-A5/GpH7-B3 variant (Y296_20W)/GpL16-k0 (antibody, human IgG1, kappa)
heavy 1: not shown
heavy 2: not shown
light: B1 light
notes: Heterodimerized; only the B3 chain altered; also called He Ab Y296_20W
B20: GpH7-A5/GpH7-B3 variant (Y300_08L)/GpL16-k0 (antibody, human IgG1, kappa)
heavy 1: not shown
heavy 2: not shown
light: B1 light
notes: Heterodimerized; only the B3 chain altered; also called He Ab Y300_08L
B21: GpH7-A5/GpH7-B3 variant (A330_10E)/GpL16-k0 (antibody, human IgG1, kappa)
heavy 1: not shown
heavy 2: not shown
light: B1 light
notes: Heterodimerized; only the B3 chain altered; also called He Ab A330_10E
B22: GpH7-A5/GpH7-B3 variant (A330_04F)/GpL16-k0 (antibody, human IgG1, kappa)
heavy 1: not shown
heavy 2: not shown
light: B1 light
notes: Heterodimerized; only the B3 chain altered; also called He Ab A330_04F
B23: GpH7-A5/GpH7-B3 variant (T335_07I)/GpL16-k0 (antibody, human IgG1, kappa)
heavy 1: not shown
heavy 2: not shown
light: B1 light
notes: Heterodimerized; only the B3 chain altered; also called He Ab T335_07I
B24: GpH7-A5/GpH7-B3 variant (T335_15Y)/GpL16-k0 (antibody, human IgG1, kappa)
heavy 1: not shown
heavy 2: not shown
light: B1 light
notes: Heterodimerized; only the B3 chain altered; also called He Ab T335_15Y
B25: GpH7-A5/GpH7-B3 variant (Y300_11K)/GpL16-k0 (antibody, human IgG1, kappa)
heavy 1: not shown
heavy 2: not shown
light: B1 light
notes: Heterodimerized; only the B3 chain altered; also called He Ab Y300_11K
B26: GpH7-B3 variant (Y300_11K)/GpL16-k0 (antibody, human IgG1, kappa)
heavy: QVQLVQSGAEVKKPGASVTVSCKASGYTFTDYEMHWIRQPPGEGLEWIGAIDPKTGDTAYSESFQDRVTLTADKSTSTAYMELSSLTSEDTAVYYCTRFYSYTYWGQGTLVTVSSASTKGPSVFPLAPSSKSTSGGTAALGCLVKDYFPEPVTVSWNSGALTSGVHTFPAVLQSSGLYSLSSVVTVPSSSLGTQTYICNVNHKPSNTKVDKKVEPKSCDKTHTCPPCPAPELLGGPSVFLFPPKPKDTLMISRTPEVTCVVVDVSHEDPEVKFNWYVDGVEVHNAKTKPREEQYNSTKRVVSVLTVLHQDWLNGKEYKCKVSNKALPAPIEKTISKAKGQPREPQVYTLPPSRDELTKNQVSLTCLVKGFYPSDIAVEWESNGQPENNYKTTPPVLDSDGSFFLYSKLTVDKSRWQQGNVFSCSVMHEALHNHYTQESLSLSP
light: B1 light
notes: Homodimerized; both H chains altered; also called Ho Ab Y300_11K
B27: GpH7-B3 variant (Y300_20W)/GpL16-k0 (antibody, human IgG1, kappa)
heavy: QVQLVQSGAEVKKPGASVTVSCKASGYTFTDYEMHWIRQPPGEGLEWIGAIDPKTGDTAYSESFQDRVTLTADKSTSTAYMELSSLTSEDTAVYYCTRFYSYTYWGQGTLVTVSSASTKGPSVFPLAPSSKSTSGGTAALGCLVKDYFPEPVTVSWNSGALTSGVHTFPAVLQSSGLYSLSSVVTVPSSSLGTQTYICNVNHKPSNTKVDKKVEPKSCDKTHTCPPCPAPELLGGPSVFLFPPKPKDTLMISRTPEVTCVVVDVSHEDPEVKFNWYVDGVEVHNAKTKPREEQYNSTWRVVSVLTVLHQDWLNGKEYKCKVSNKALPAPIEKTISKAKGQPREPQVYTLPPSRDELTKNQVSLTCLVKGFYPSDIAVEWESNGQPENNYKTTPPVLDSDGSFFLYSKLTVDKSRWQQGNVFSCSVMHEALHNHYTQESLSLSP
light: B1 light
notes: Homodimerized; both H chains altered; also called Ho Ab Y300_20W
B28: GpH7-B3 variant (Y300_14T)/GpL16-k0 (antibody, human IgG1, kappa)
heavy: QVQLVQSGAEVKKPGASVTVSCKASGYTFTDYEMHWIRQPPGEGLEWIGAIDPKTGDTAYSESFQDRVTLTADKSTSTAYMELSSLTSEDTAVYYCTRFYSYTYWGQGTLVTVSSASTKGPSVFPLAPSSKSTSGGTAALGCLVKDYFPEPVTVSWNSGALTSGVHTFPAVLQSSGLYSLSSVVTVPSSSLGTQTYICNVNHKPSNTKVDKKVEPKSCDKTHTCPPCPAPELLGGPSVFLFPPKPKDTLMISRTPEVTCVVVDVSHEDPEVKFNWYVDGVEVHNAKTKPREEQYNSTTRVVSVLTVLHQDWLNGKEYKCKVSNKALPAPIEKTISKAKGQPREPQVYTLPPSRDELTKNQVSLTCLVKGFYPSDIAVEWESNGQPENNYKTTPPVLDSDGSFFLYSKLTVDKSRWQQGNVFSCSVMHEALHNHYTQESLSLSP
light: B1 light
notes: Homodimerized; both H chains altered; also called Ho Ab Y300_14T
B29: GpH7-B3 variant (Y300_13S)/GpL16-k0 (antibody, human IgG1, kappa)
heavy: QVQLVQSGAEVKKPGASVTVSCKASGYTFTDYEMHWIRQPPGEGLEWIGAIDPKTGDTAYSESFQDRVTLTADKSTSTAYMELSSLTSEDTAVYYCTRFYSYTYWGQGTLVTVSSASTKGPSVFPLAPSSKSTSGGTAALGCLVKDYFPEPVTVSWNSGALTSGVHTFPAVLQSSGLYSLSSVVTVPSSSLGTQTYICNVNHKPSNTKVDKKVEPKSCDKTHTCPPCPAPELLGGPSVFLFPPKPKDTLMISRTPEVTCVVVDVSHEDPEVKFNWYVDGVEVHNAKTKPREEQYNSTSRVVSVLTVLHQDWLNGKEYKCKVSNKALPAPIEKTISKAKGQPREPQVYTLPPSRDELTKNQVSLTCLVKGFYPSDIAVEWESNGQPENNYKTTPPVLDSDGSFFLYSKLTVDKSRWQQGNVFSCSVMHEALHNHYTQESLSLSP
light: B1 light
notes: Homodimerized; both H chains altered; also called Ho Ab Y300_13S
B30: GpH7-B3 variant (Y300_19Q)/GpL16-k0 (antibody, human IgG1, kappa)
heavy: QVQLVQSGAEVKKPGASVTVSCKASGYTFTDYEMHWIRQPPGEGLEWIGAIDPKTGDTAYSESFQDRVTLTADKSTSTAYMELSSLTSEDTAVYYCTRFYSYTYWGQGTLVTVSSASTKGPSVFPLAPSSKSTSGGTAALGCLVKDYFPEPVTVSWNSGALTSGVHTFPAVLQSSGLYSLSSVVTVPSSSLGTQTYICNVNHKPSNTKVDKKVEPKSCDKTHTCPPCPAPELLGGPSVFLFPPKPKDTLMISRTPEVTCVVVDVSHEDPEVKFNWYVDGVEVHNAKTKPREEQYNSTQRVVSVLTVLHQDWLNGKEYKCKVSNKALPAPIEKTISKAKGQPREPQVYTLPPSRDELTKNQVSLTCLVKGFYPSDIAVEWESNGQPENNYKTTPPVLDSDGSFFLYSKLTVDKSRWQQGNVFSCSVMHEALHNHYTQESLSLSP
light: B1 light
notes: Homodimerized; both H chains altered; also called Ho Ab Y300_19Q

Each binder was assayed against T1, FcγRIa extracellular domain with C-terminal His tag (human, UniProt P12314 16-292) (assay: SPR (Biacore), captured antibody, FcγRIa analyte; relative to GpH7-A5/GpH7-B3/GpL16-k0 = 100).
T1 construct: extracellular domain; Expressed in FreeStyle293 cells; used as analyte in Biacore; also called FcgRI; 1a; not shown: His tag at the C terminus
T1 sequence (P12314 16-292): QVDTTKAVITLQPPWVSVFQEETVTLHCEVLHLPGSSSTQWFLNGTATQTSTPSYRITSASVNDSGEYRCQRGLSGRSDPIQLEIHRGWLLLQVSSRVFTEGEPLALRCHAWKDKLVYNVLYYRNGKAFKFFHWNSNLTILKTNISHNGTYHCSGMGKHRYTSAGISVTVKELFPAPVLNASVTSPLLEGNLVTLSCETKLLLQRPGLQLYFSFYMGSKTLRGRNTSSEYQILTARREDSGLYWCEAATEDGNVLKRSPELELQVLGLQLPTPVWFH

Row | He/Con_1a | Binder
1 | 104 % of control | B1
2 | 106 % of control | B2
3 | 109 % of control | B3
4 | 105 % of control | B4
5 | 117 % of control | B5
6 | 102 % of control | B6
7 | 111 % of control | B7
8 | 106 % of control | B8
9 | 106 % of control | B9
10 | 105 % of control | B10
11 | 110 % of control | B11
12 | 105 % of control | B12
13 | 105 % of control | B13
14 | 109 % of control | B14
15 | 111 % of control | B15
16 | 101 % of control | B16
17 | 112 % of control | B17
18 | 106 % of control | B18
19 | 111 % of control | B19
20 | 113 % of control | B20
21 | 107 % of control | B21
22 | 106 % of control | B22
23 | 109 % of control | B23
24 | 107 % of control | B24
25 | 107 % of control | B25

The binders below were run against T1, FcγRIa extracellular domain with … (assay: SPR (Biacore), captured antibody, FcγRIa analyte; relative to GpH7-B3/GpL16-k0 = 100).

Row | Ho/Con_1a | Binder
26 | 101 % of control | B26
27 | 110 % of control | B27
28 | 110 % of control | B28
29 | 110 % of control | B29
30 | 110 % of control | B30
